These results are taken from patent publication US12269859B2, “Synthetic immune receptors and methods of use thereof” (Angeles Therapeutics, Inc., priority 2016, dated 2025).

Positions count from the first letter of the chain named.

B1: 102116-D01 (protein)
chain: MALPVTALLLPLALLLHAARPLEGKPIPNPLLGLDSTGSGEDLKNVFPPEVAVFEPSKAEIAHTQKATLVCLATGFYPDHVELSWWVNGKEVHSGVCTDPQPLKEQPALNDSRYCLSSRLRVSATFWQNPRNHFRCQVQFYGLSENDEWTQDRAKPVTQIVSAEAWGRADCGITSASYHQGVLSATILYEILLGKATLYAVLVSALVLMAMVKRKDSRGRAKRSGSGATNFSLLKQAGDVEENPGPTSTMALPVTALLLPLALLLHAARPQAVLTQPPSASGTPGQRVTISCSGSSSNIGSYTVSWYQQLPGTAPKFLIYSNNQRPSGVPDRFSGSKSGTSASLAISGLQSEDEADYYCAAWDDSLNGYVFGTGTKVTVLGGGGGSGGGGSGGGGSEVQLVQSGAEVKKPGESLKISCKGSGYDFTTYWIGWVRQMPGKGLEWMGIIYPGDSDTRYSPSVRGRVTISADKSINTAYLQWSSLEASDTAMYYCARMWTFSQDGWGQGTLVTVSSTREQKLISEEDGSGIQNPDPAVYQLRDSKSSDKSVCLFTDFDSQTNVSQSKDSDVYITDKCVLDMRSMDFKSNSAVAWSNKSDFACANAFNNSIIPEDTFFPSSDVPCDVKLVEKSFETDTNLNFQNLSVIGFRILLLKVAGFNLLMTLRLWSSRAKRSGSGVKQTLNFDLLKLAGDVESNPGPSRGHMTEYKPTVRLATRDDVPRAVRTLAAAFADYPATRHTVDPDRHIERVTELQELFLTRVGLDIGKVWVADDGAAVAVWTTPESVEAGAVFAEIGPRMAELSGSRLAAQQQMEGLLAPHRPKEPAWFLATVGVSPDHQGKGLGSAVVLPGVEAAERAGVPAFLETSAPRNLPFYERLGFTVTADVEVPEGPRTWCMTRKPGA
modifications: Synthetic Immune Receptor (SIR)
B2: 092517-F01 (protein)
chain: MALPVTALLLPLALLLHAARPLEGKPIPNPLLGLDSTGSGEDLKNVFPPEVAVFEPSKAEIAHTQKATLVCLATGFYPDHVELSWWVNGKEVHSGVCTDPQPLKEQPALNDSRYCLSSRLRVSATFWQNPRNHFRCQVQFYGLSENDEWTQDRAKPVTQIVSAEAWGRADCGITSASYHQGVLSATILYEILLGKATLYAVLVSALVLMAMVKRKDSRGRAKRSGSGATNFSLLKQAGDVEENPGPTSMALPVTALLLPLALLLHAARPDVVMTQSPSSLSASVGDRVTITCRASQDISKYLNWYQQKPGKAPKLLIYHTSRLHSGVPSRFSGSGSGTDFTLTISSLQPEDFATYYCQQGNTLPYTFGGGTKVEIKGGGGSGGGGSGGGGSQVQLQESGPGLVKPSQTLSLTCTVSGVSLPDYGVSWIRQPPGKGLEWIGVIWGSETTYYNSALKSRVLISVDTSKNQVSLKLSSVTAADTAVYYCARHYYYGGSYAMDYWGQGTTVTVSSTREQKLISEEDGSGIQNPDPAVYQLRDSKSSDKSVCLFTDFDSQTNVSQSKDSDVYITDKCVLDMRSMDFKSNSAVAWSNKSDFACANAFNNSIIPEDTFFPSSDVPCDVKLVEKSFETDTNLNFQNLSVIGFRILLLKVAGFNLLMTLRLWSSRAKRSGSGVKQTLNFDLLKLAGDVESNPGPSRGHMTEYKPTVRLATRDDVPRAVRTLAAAFADYPATRHTVDPDRHIERVTELQELFLTRVGLDIGKVWVADDGAAVAVWTTPESVEAGAVFAEIGPRMAELSGSRLAAQQQMEGLLAPHRPKEPAWFLATVGVSPDHQGKGLGSAVVLPGVEAAERAGVPAFLETSAPRNLPFYERLGFTVTADVEVPEGPRTWCMTRKPGA
B3: 110217-A03 (protein)
chain: MALPVTALLLPLALLLHAARPDVVMTQSPSSLSASVGDRVTITCRASQDISKYLNWYQQKPGKAPKLLIYHTSRLHSGVPSRFSGSGSGTDFTLTISSLQPEDFATYYCQQGNTLPYTFGGGTKVEIKLEDLKNVFPPEVAVFCPSEAEISHTQKATLVCLATGFYPDHVELSWWVNGKEVHSGVSTDPQPLKEQPALNDSRYCLSSRLRVSATFWQNPRNHFRCQVQFYGLSENDEWTQDRAKPVTQIVSAEAWGRADCGFTSESYQQGVLSATILYEILLGKATLYAVLVSALVLMAMVKRKDSRGRAKRSGSGATNFSLLKQAGDVEENPGPTSMDWIWRILFLVGAATGAHSFEQVQLQESGPGLVKPSQTLSLTCTVSGVSLPDYGVSWIRQPPGKGLEWIGVIWGSETTYYNSALKSRVLISVDTSKNQVSLKLSSVTAADTAVYYCARHYYYGGSYAMDYWGQGTTVTVSSTRIQNPDPAVYQLRDCKSSDKSVCLFTDFDSQTNVSQSKDSDVYITDKTVLDMRSMDFKSNSAVAWSNKSDFACANAFNNSIIPEDTFFPSPESSCDVKLVEKSFETDTNLNFQNLSVIGFRILLLKVAGFNLLMTLRLWSS
B4: 110217-B04 (protein)
chain: B3 chain with C144E, D188C, C494S, T524C
B5: 110217-D01 (protein)
chain: B3 chain with C144E, S146C, Y489C, C494S
B6: 110217-C03 (protein)
chain: B3 chain with C144E, S206C, C494S, T524C
B7: 022817-J01 (protein)
chain: MALPVTALLLPLALLLHAARPLEGKPIPNPLLGLDSTGSGEDLKNVFPPEVAVFEPSKAEIAHTQKATLVCLATGFYPDHVELSWWVNGKEVHSGVCTDPQPLKEQPALNDSRYCLSSRLRVSATFWQNPRNHFRCQVQFYGLSENDEWTQDRAKPVTQIVSAEAWGRADCGITSASYHQGVLSATILYEILLGKATLYAVLVSALVLMAMVKRKDSRGRAKRSGSGATNFSLLKQAGDVEENPGPTSMALPVTALLLPLALLLHAARPQIVLTQSPATLSASPGEKATMTCSASSGVNYMHWYQQKPGTSPKRWIYDTDKTASGVPARFSGSGSGTSYSLTISSMEAEDAATYYCHQRGSYTFGGGTKLEIKGGGGSGGGGSGGGGSQVQLEQPGAEVVKPGASVKVSCKTSGYTFTSNWMHWVKQTPGKGLEWIGEIDPSDSYTNYNQKFDGKAKLTVDKSSSTAYMEVSDLTAEDSATYYCARGSNPYYYAMDYWGQGTSVTVSSTREQKLISEEDGSGIQNPDPAVYQLRDSKSSDKSVCLFTDFDSQTNVSQSKDSDVYITDKCVLDMRSMDFKSNSAVAWSNKSDFACANAFNNSIIPEDTFFPSSDVPCDVKLVEKSFETDTNLNFQNLSVIGFRILLLKVAGFNLLMTLRLWSSRAKRSGSGVKQTLNFDLLKLAGDVESNPGPSRGHMTEYKPTVRLATRDDVPRAVRTLAAAFADYPATRHTVDPDRHIERVTELQELFLTRVGLDIGKVWVADDGAAVAVWTTPESVEAGAVFAEIGPRMAELSGSRLAAQQQMEGLLAPHRPKEPAWFLATVGVSPDHQGKGLGSAVVLPGVEAAERAGVPAFLETSAPRNLPFYERLGFTVTADVEVPEGPRTWCMTRKPGA
B8: 032216-C04 (protein)
chain: MALPVTALLLPLALLLHAARPDIVLTQSPATLSLSPGDRATISCRASESVTILGSHLIYWYQQKPGQPPRLLIQLASNVQTGVPARFSGSGSRTDFTLTISSVEPEDFAVYYCLQSRTIPRTFGQGTKLEIKRLEGKPIPNPLLGLDSTGSGEDLKNVFPPEVAVFEPSKAEIAHTQKATLVCLATGFYPDHVELSWWVNGKEVHSGVCTDPQPLKEQPALNDSRYCLSSRLRVSATFWQNPRNHFRCQVQFYGLSENDEWTQDRAKPVTQIVSAEAWGRADCGITSASYHQGVLSATILYEILLGKATLYAVLVSALVLMAMVKRKDSRGRAKRSGSGATNFSLLKQAGDVEENPGPTSMDWIWRILFLVGAATGAHSFEQVQLVQSGPEVKKPGESVKISCKASGYTFRHYSMNWVKQAPGQGLKWMGRINTESGVPIYADDFKGRFSFTVDTSASTAYLEISSLTSEDTAVYFCSNDYLYSLDFWGQGTTLTVSSTREQKLISEEDGSGIQNPDPAVYQLRDSKSSDKSVCLFTDFDSQTNVSQSKDSDVYITDKCVLDMRSMDFKSNSAVAWSNKSDFACANAFNNSIIPEDTFFPSSDVPCDVKLVEKSFETDTNLNFQNLSVIGFRILLLKVAGFNLLMTLRLWSSRAKRSGSGVKQTLNFDLLKLAGDVESNPGPSRGHMTEYKPTVRLATRDDVPRAVRTLAAAFADYPATRHTVDPDRHIERVTELQELFLTRVGLDIGKVWVADDGAAVAVWTTPESVEAGAVFAEIGPRMAELSGSRLAAQQQMEGLLAPHRPKEPAWFLATVGVSPDHQGKGLGSAVVLPGVEAAERAGVPAFLETSAPRNLPFYERLGFTVTADVEVPEGPRTWCMTRKPGA
modifications: Polynucleotide encoding a Synthetic Immune Receptor (SIR)

The first assay relates to target antigen-expressing cell line. The assay can be described thus: Jurkat NFAT-GFP assay, coculture with target cell lines expressing the respective target antigen (summary Table 10A). The class given is cell-based, human. On the set-up: key: The signs +/−, +, 2+ etc. after the name of the cell lines indicate the relative degree of positivity on the Jurkat-NFAT-GFP assay as measured by the % GFP positive cells; +: relative degree of positivity on the Jurkat-NFAT-GFP assay as measured by the % GFP positive cells; 2+: relative degree of positivity on the Jurkat-NFAT-GFP assay as measured by the % GFP positive cells. To be noted: SIR-expressing Jurkat-NFAT-GFP cells cocultured with L363; relative % GFP positive cells. The gist of the method:
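Positivity is scored when SIR-expressing reporter Jurkat cells show more GFP-positive cells than parental controls after coculture with the antigen-bearing line. Effector-to-target ratio is about 1:2, coculture lasts roughly 4–18 hours, and GFP is quantified by FACS.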
B1: the “NFAT-GFP ASSAY Positive Cell lines: L363” value is “L363 (2+), U266”.

Staying with this assay, now noted: SIR-expressing Jurkat-NFAT-GFP cells cocultured with NALM6; relative % GFP positive cells.
Regarding B2, the “NFAT-GFP ASSAY Positive Cell lines: NALM6” value is listed as “RAJI (+), NALM6 (+)”.

For B3, the “NFAT-GFP ASSAY Positive Cell lines: NALM6” value is recorded as “(+/−)”.

As to B4, the “NFAT-GFP ASSAY Positive Cell lines: NALM6” value is “(+/−)”.

On to B5, for which the “NFAT-GFP ASSAY Positive Cell lines: NALM6” value is “(+/−)”.

With B6, the “NFAT-GFP ASSAY Positive Cell lines: NALM6” value is reported as “(+/−)”.

Regarding B7, the “NFAT-GFP ASSAY Positive Cell lines: NALM6” value is “(+/−)”.

Still in this assay, the particulars now being: SIR-expressing Jurkat-NFAT-GFP cells cocultured with RAJI; relative % GFP positive cells.
On to B2, for which the “NFAT-GFP ASSAY Positive Cell lines: RAJI” value was “RAJI (+), NALM6 (+)”.

In the case of B8, the “NFAT-GFP ASSAY Positive Cell lines: RAJI” value is listed as 2+.

For B3, the “NFAT-GFP ASSAY Positive Cell lines: RAJI” value is on record as “RAJI (+/−), NALM6”.

With B4, the “NFAT-GFP ASSAY Positive Cell lines: RAJI” value was “RAJI (+/−), NALM6”.

Take B5: the “NFAT-GFP ASSAY Positive Cell lines: RAJI” value is reported as “RAJI (+/−), NALM6”.

Take B6: the “NFAT-GFP ASSAY Positive Cell lines: RAJI” value is reported as “RAJI (+/−), NALM6”.

B7: the “NFAT-GFP ASSAY Positive Cell lines: RAJI” value is “RAJI (+), NALM6”.

Staying with this assay, now noted: SIR-expressing Jurkat-NFAT-GFP cells cocultured with U266; relative % GFP positive cells.
For B1, the “NFAT-GFP ASSAY Positive Cell lines: U266” value is “(2+)”.
